The text below walks through data of paper PMC6201868, “Significance of a histone-like protein with its native structure for the diagnosis of asymptomatic tuberculosis” (PLoS ONE, 2018).

Series [1] deals with rFull-MDP1 (full-length HIS-tagged recombinant mycobacterial DNA-binding protein 1) (M. tuberculosis) (UniProt P9WMK7). As to the kind of experiment: cross-linking.
Series [2] concerns the molecule itself. Briefly: […], buffer pH 7.0 with 300 mM NaCl, […].

A word on the stoichiometry N: it is the number of molecules, sites or subunits per partner or assembly. “rFull-MDP1 (full-length HIS-tagged recombinant mycobacterial DNA-binding protein 1) (from UniProt P9WMK7 1-216) (natural protein)”: the stoichiometry N in series [1] came out at 2.

B1: rN-MDP1 (amino acids 1-100 of mycobacterial DNA-binding protein 1, histidine-tagged) (domain or fragment)
chain: MGMNKAELIDVLTQKLGSDRRQATAAVENVVDTIVRAVHKGDSVTITGFGVFEQRRRAARVARNPRTGETVKVKPTSVPAFRPGAQFKAVVSGAQRLPAE
notes: also called N-terminal half of MDP1
In the case of B1, the “stoichiometry N” value in series [2] turned out to be 2.
